The text below walks through data of article PMC10277290.

Residue numbers refer to the chain shown, from its start. Names and notes keep the numbering of the source.

The term Km denotes the substrate concentration at which the rate is half of its maximum. For orientation: Vmax means the top rate of the reaction or transport when substrate is in excess. The term kcat denotes the maximal rate divided by the concentration of active sites. The kcat/Km is the second-order rate constant that governs catalysis at low substrate concentration.

The chains are these.
B1: MdhBs (NAD+-dependent methanol dehydrogenase) (Geobacillus stearothermophilus) (protein)
chain: MKAAVVNEFKKALEIKEVERPKLEEGEVLVKIEACGVCHTDLHAAHGDWPIKPKLPLIPGHEGVGIVVEVAKGVKSIKVGDRVGIPWLYSACGECEYCLTGQETLCPHQLNGGYSVDGGYAEYCKAPADYVAKIPDNLDPVEVAPILCAGVTTYKALKVSGARPGEWVAIYGIGGLGHIALQYAKAMGLNVVAVDISDEKSKLAKDLGADIAINGLKEDPVKAIHDQVGGVHAAISVAVNKKAFEQAYQSVKRGGTLVVVGLPNADLPIPIFDTVLNGVSVKGSIVGTRKDMQEALDFAARGKVRPIVETAELEEINEVFERMEKGKINGRIVLKLKED
B2: MdhBs (NAD+-dependent methanol dehydrogenase) (Geobacillus stearothermophilus; E309K/N214D) (protein)
chain: B1 chain with N214D, E309K
B3: MdhBs (NAD+-dependent methanol dehydrogenase) (Geobacillus stearothermophilus; K72T/T153P) (protein)
chain: B1 chain with K72T, T153P

Substrate in the data set: CO
Nature of the data set: purified protein. The note with it: NAD+ 0.5 mM, Mg2+ 5 mM, PBS pH 7.4, 37 °C. The class given is biochemical, Geobacillus stearothermophilus.
With B1, the Km worked out at 30.03 ± 4.63 mM, the Vmax stood at 0.0115 µmol/min/mg, the kcat was 0.007 ± 0.001 s⁻¹ and the kcat/Km came to 0.233 M⁻¹ s⁻¹.

For the protein B2, the Km is recorded as 18.19 ± 3.27 mM, the maximal velocity (Vmax) was 0.0238 µmol/min/mg, the kcat is 0.013 ± 0.001 s⁻¹ and the kcat/Km stood at 0.715 M⁻¹ s⁻¹.

Regarding B3, the Km was 9.84 ± 0.67 mM, the maximum rate (Vmax) was 0.0288 µmol/min/mg, the kcat was 0.015 ± 0.001 s⁻¹ and the kcat/Km amounted to 1.52 M⁻¹ s⁻¹.
